Patent US9724388B2, “FGF-18 compound dosing regimen” (MERCK PATENT GMBH, priority 2014, dated 2017)
“Also recorded” adds a separate entry of the source.

Legend:
[1] = system: ACLT+tMx model of instability-induced OA; test: ACLT+tMx rat OA model, neo-formation of cartilaginous tissue (Safranin-O quantification); assay type: in vivo; conditions: for dose at which dose-dependent neo-formation of cartilaginous tissue became significant, medial tibia: FIG. 2b
Experimental: The anterior cruciate ligament transection with resection of the medial meniscus (ACLT+tMx) model of instability-induced OA was performed in male Lewis rats 10-15 weeks of age. Briefly, under anesthesia with isoflurane, the joint capsule of the right knee of each rat was opened, the anterior cruciate and meniscus fixating ligaments were sharply transected, the meniscus was removed and the capsule, muscles and skin closed by sutures. Animals were randomly allocated into 10 groups of n=10 each. The following dosages were investigated: 0, 0.3, 1, 3 and 10 μg per intra-articular injection. Groups 1-5 received one cycle of three single injections at weekly intervals, group 6-10 three single injections at monthly intervals. Intra-articular treatment was started three weeks post-surgery. At this time pathophysiological changes are already mainifest, e.g., cartilage matrix loss. Animals were euthanized 17 weeks after surgery and joints were investigated.

[2] = in vivo; cited from earlier work
[3] = system: Primary articular porcine chondrocytes; test: Porcine chondrocyte proliferation with or without IL1α challenge; assay type: cell-based, pig; conditions: 100 ng/mL, 8 days
Experimental: Porcine chondrocytes were isolated from the cartilage of a femoral head of a pig hip (pigs were approximately one year old). After dissection of the joints, the cartilage was harvested and digested 45 minutes with collagenase 0.25% (1/10 dilution of collagenase NBG4 2.5% in HAM's F12) at room temperature. The loosened cells were discarded and the cartilage further digested overnight with collagenase 0.1% (1/25 dilution of collagenase NBG4 2.5% in HAM's F12) at 37° C. to extract the chondrocytes. For this study, the chondrocytes were cultured in monolayer.
Primary articular porcine chondrocytes were stimulated or not with 10 ng/mL IL1α and were either treated immediately or 6 hours later with anakinra 100 ng/mL and/or trFGF-18 100 ng/mL. Each condition was performed in 4 or 6-plicates. As a control, cells were also cultured with anakinra alone, trFGF-18 alone or in the absence of any treatment (medium).
Pre-culture: After cell isolation porcine chondrocytes were inoculated at 20,000 cells/cm^2 and cultivated for one week in complete HAM's F12. Cells were then harvested with accutase, counted and used as described below.
For cells treated directly with anakinra: Chondrocytes were inoculated in a 24-well plate at 15,000 cells/well in 0.5 mL of complete HAM's F12. Then 0.25 mL of trFGF-18 400 ng/mL and/or 0.25 mL of anakinra 400 ng/mL were added to the cells. In the challenged samples, 10 μL of IL1α at 1,000 ng/mL were also added to the cells. trFGF-18, anakinra and IL1α were all diluted in complete HAM's F12. The final volume in the culture well was adjusted at 1 mL with complete HAM's F12. Final concentrations were 10 ng/mL IL1α, 100 ng/mL trFGF-18 and 100 ng/mL anakinra and the total culture time was eight days. A complete medium change was performed after four days. N=4.
For cells treated with anakinra and trFGF-18 6 hours after the IL1α challenge: Chondrocytes were inoculated in a 24-well plate at 15,000 cells/well in 1 mL of complete HAM's F12 containing or not containing IL1α 10 ng/mL. After 6 hours the medium was removed and replaced with 0.25 mL trFGF-18 400 ng/mL and/or 0.25 mL of anakinra 400 ng/mL. In the challenged samples, 0.25 mL of IL1α at 40 ng/mL was also added to the cells. trFGF-18, anakinra and IL1α were all diluted in complete HAM's F12. The final volume in the culture well was adjusted at 1 mL with complete HAM's F12. Final concentrations were 10 ng/mL IL1α, 100 ng/mL trFGF-18 and 100 ng/mL anakinra and the total culture time was eight days. A complete medium change was performed after four days. N=6.
After eight days of culture, cells were harvested with accutase and resulting cell suspensions were analyzed for cell concentration and cell viability with a ViCell™ cell analyzer (from Beckman Coulter). Statistical analysis consisted in a 1-way ANOVA followed by a Dunnett post-hoc analysis.

[4] = system: rat model of OA (ACLT with tMx); test: ACLT+tMx rat OA model, intracycle dosing frequencies of sprifermin; assay type: in vivo
Experimental: The goal of this study was to evaluate the effect of different intracycle dosing frequencies of the same total dosage (3×1 μg) of sprifermin on cartilage volume in a rat model of OA. The anterior cruciate ligament transection (ACLT) with resection of the medial meniscus (tMx) was performed as disclosed in example 1. Joints from male Lister Hooded Rats (200-260 g, Charles River) were used in this study. Animals were euthanized 18 weeks post-surgery.
The changes in the joint are related to clinical assessments in OA (cartilage loss, osteophytes, subchondral sclerosis). One μg sprifermin in saline was injected three times either weekly, every 2nd, every 3rd, every 4th or every 5th week and compared to appropriate vehicle groups. Body weight, joint diameters and clinical health scores were investigated weekly.

B1: trFGF-18: recombinant truncated form of human FGF-18 (170 amino acids, SEQ ID NO: 2), produced in E. coli (protein)
chain: MEENVDFRIHVENQTRARDDVSRKQLRLYQLYSRTSGKHIQVLGRRISARGEDGDKYAQLLVETDTFGSQVRIKGKETEFYLCMNRKGKLVGKPDGTSKECVFIEKVLENNYTALMSAKYSGWYVGFTKKGRPRKGPKTRENQQDVHFMKRYPKGQPELQKPFKYTTVTK
modifications: Recombinant truncated FGF-18(trFGF-18)
With B1 the “dose at which dose-dependent neo-formation of cartilaginous tissue became significant, lateral tibia” value ([1]; independently of the injection regimen (3 i.a. injections weekly or monthly), FIG. 2a) was 1 μg/joint, the “dose at which dose-dependent neo-formation of cartilaginous tissue became significant, medial tibia” value ([1]; one monthly regimen) was 0.3 μg/joint and the “dose at which dose-dependent neo-formation of cartilaginous tissue became significant, medial tibia” value ([1]; one weekly regimen) was 1 μg/joint. The “half-life in the joint” value [2] was “less than 24 hours”, the “stimulation of proliferation vs control (medium, IL1α 10 ng/mL)” value ([3]; first experiment (direct treatment)) was 2.38 fold and the “stimulation of proliferation vs control (medium, IL1α 10 ng/mL)” value ([3]; second experiment (6-hour delay)) was 2.44 fold. For the same molecule, the “increase in cell numbers vs control (medium, no IL1α)” value ([3]; first experiment (direct treatment, FIG. 6A)) was 11.25 fold, the “increase in cell numbers vs control (medium, no IL1α)” value ([3]; second experiment (6-hour delay, FIG. 6B)) was 7.75 fold and the “cartilage volume on medial tibia (FIG. 9)” value ([4]; 1 μg/joint once every 3rd week, three injections, listed as rhFGF-18) was “pharmacologically meaningful and statistically significant difference over saline; also recorded: most beneficial structural outcome”. For the same molecule, the body weight gain ([4]; 3 x 1 μg intra-articular injections) was “no influence”, the “cartilage denudation (stereology)” value ([4]; 3 x 1 μg/joint) was “prevented more or less complete cartilage denudation” and the cartilage volume ([4]; all groups treated with rhFGF-18) was “higher cartilage volume values compared to placebo”. The “AUC of joint diameters” value ([4]; injected every fifth week) was “the same as with saline injections”, the “joint diameters, differences between regimens” value ([4]; injections every 2nd, 3rd or 4th week) was “No significant differences” and the “joint diameters (AUC, FIG. 8)” value ([4]; injections in week 3, 4 and 5 vs injections in week 3, 8 and 13) was “significantly higher”.
